These results are taken from patent US7033593.

As a reminder, the koff is a measure of how fast the partners let go of each other. Lower therefore signals slow dissociation. By Kd is commonly meant a measure of binding affinity in units of concentration. A lower Kd goes with a tighter complex. By kon is commonly meant the second-order rate constant of association. Lower therefore signals slower complex formation.

Assay [1] deals with soluble HIV 89.6 gp120 envelope protein (HIV 89.6 (Clade B) primary isolate) (UniProt Q73372).
In assay [2] the target is HR-2 peptide DP178 (HIV-1 89.6).
Assay [3] has as its target scrambled sequence DP178 peptide. The experiment in a line: SPR SA-chip assay, scrDP178 surface.
The target of assay [4] is soluble CD4 (UniProt P01730). Kind of assay: SPR, preliminary experiments. (SPR reads the build-up and loss of mass on a sensor chip optically.)
Assay [5] deals with soluble CD4 (UniProt P01730). Kind of assay: SPR (BIAcore), gp120 and CD4.
Assay [6] addresses soluble CD4 (UniProt P01730). The experiment in a line: SPR, gp120 over immobilised CD4.
The target of assay [7] is soluble HIV 89.6 gp120 envelope protein (HIV 89.6 (Clade B) primary isolate) (UniProt Q73372). The experiment in a line: SPR SA-chip assay, gp120 over scrDP178 surface.
The target of assay [8] is A32-gp120 complex (HIV 89.6 gp120 bound to mab A32) (HIV 89.6 (Clade B) primary isolate) (UniProt Q73372). The experiment in a line: SPR SA-chip assay, single component.
For assay [9], the target named is soluble HIV 89.6 gp120 envelope protein (HIV 89.6 (Clade B) primary isolate) (UniProt Q73372). The source holds these as a separate data set.
Assay [10] shares this target. Kind of assay: SPR SA-chip assay, 89.6 gp120 over scrDP178 surface.
Assay [11] deals with A32-gp120 complex (HIV 89.6 gp120 bound to mab A32) (HIV 89.6 (Clade B) primary isolate) (UniProt Q73372). The experiment in a line: SPR SA-chip assay (FIG. 28B).

“And” between values parts separate entries of the source, which are not always exact repeats. Identical values can stand only once. A value given as a limit tells only on which side of the number the result lay.

With mab 19b (antibody), in [1], the % blocking of DP178 binding worked out at 68%.
“soluble HIV 89.6 gp120 envelope protein, Q73372 32-508” displayed an off-rate (koff) in [2] of 0.017 s⁻¹.
Take mab A32 (antibody): the RU (background signal) in assay [3] was 10 RU and 20 RU.
Regarding mab 17b (antibody), in assay [1], the % blocking of DP178 binding is 80%.
mAb 48d (antibody) yielded a % blocking of DP178 binding in [1] of 80%.
With soluble, monomeric gp120 DH12, the t1/2 of binding with soluble CD4 [4] was 25 min. In the assay with soluble CD4 [5], the equilibrium dissociation constant (Kd) stood at 78 nM, the off-rate (koff) stood at 0.000386 s⁻¹, the kon worked out at 4900 M⁻¹ s⁻¹ and the t1/2 was found to be 30 min. In the assay with soluble CD4 [6], this substance registered an equilibrium dissociation constant (Kd) of 96 nM and a koff of 0.00047 s⁻¹.
In turn, soluble, monomeric gp120 JRFL came in with a t1/2 of binding with soluble CD4 [4] of 14 min. Moreover, in the assay with soluble CD4 [5], the dissociation constant Kd was found to be 150 nM, the koff came out at 0.000884 s⁻¹ and the kon was found to be 6000 M⁻¹ s⁻¹. In the assay with soluble CD4 [6], this substance had a Kd of 146 nM and an off-rate constant (koff) of 0.00088 s⁻¹.
On to scrambled sequence DP178 peptide, for which the results for the RU in assay [7] and in [11] were 50 RU and < 200 RU, respectively. This substance also had a koff in assay [8] of 0.017 s⁻¹. Besides, in assay [9], the band density is 0.6 ODunits/mm^2. The RU (background signal) in assay [10] was 10 RU and 20 RU.
